{
  "source": "paper PMC2883863",
  "origin": "cited, not measured here",
  "biological_target": "Cys36 (UniProt position 73, FWTPWCPFCNA)",
  "details": "not stated (quoted literature value for Mtb DsbE)",
  "data": [
    {"substance": "Disulfide bond forming protein DsbE (Mtb DsbE, Rv2878c, MPT53) (Mycobacterium tuberculosis)", "values": [
      {"measurement": "pKa", "result": "5.35 ± 0.2"}
    ]}
  ]
}
